Assay results reported in US20220251176A1 (GREEN CROSS, published 2022).

B1: recombinant human CD3 (receptor)
chain: DGNEEMGGITQTPYKVSISGTTVILTCPQYPGSEILWQHNDKNIGGDEDDKNIGSDEDHLSLKEFSELEQSGYYVCYPRGSKPEDANFYLYLRARVCENCMEMD
B2: anti-MSLN/anti-CD3 bispecific antibody HMI323/HMI323-A15 (bispecific antibody, human IgG1, kappa, lambda, L234A L235A)
chain 1: DIQMTQSPSSLSASVGDRVTITCRASQDVSTAVAWYQQKPGKAPKLLIYSASYRYPGVPSRFSGSGSGTDFTLTISSLQPEDFATYYCQQHYSTPWTFGGGTKLEIKRTVAAPSVFIFPPSDEQLKSGTASVVCLLNNFYPREAKVQWKVDNALQSGNSQESVTEQDSKDSTYSLSSTLTLSKADYEKHKVYACEVTHQGLSSPVTKSFNRGECSGGGSGGGSEGGGSEGGGSEGGGSEGGGSGGGSGEVQLVQSGAEVKKPGTSVKVSCKASGYSFTSYFIQWVRQAPGQGLEWIGWIFPGSGNTKYSQKFQGRVTITRDTSTSTAYMELSSLRSEDTAVYYCARSGGYQYYFDYWGQGTLVTVSSASTKGPSVFPLAPSSKSTSGGTAALGCLVKDYFPEPVTVSWNSGALTSGVHTFPAVLQSSGLYSLSSVVTVPSSSLGTQTYICNVNHKPSNTKVDKKVGGGGSGGGGSGGGGSQAVVTQEPSLTVSPGGTVTLTCRSSTGAVTTSNYANWVQQKPGQAPRGLIGGTNKRAPWTPARFSGSLLGGKAALTLSGAQPEDEAEYYCALWYSNLWVFGGGTKLTVLGQPKANPTVTLFPPSSEELQANKATLVCLISDFYPGAVTVAWKADGSPVKAGVETTKPSKQSNNKYAASSYLSLTPEQWKSHRSYSCQVTHEGSTVEKTVAPTECSGGGSGGGSEGGGSEGGGSEGGGSEGGGSGGGSGEVQLVESGGGLVQPGGSLKLSCAASGFTFNTYAMNWVRQASGKGLEWVGRIRSKYNNYATYYADSVKDRFTISRDDSKNTAYLQMNSLKTEDTAVYYCVRHGNFGNSYVSWFAYWGQGTLVTVSSASTKGPSVFPLAPSSKSTSGGTAALGCLVKDYFPEPVTVSWNSGALTSGVHTFPAVLQSSGLYSLSSVVTVPSSSLGTQTYICNVNHKPSNTKVDKKVEPKSCDKTHTCPPCPAPEAAGGPSVFLFPPKPKDTLMISRTPEVTCVVVDVSHEDPEVKFNWYVDGVEVHNAKTKPREEQYNSTYRVVSVLTVLHQDWLNGKEYKCKVSNKALPAPIEKTISKAKGQPREPRVYTLPPCRDELTKNQVSLTCLVKGFYPSDIAVEWESNGQPENNYKTTPPVLVSDGSFTLYSKLTVDKSRWQQGNVFSCSVMHEALHNHYTQKSLSLSPG
chain 2: DIQMTQSPSSLSASVGDRVTITCRASQDVSTAVAWYQQKPGKAPKLLIYSASYRYPGVPSRFSGSGSGTDFTLTISSLQPEDFATYYCQQHYSTPWTFGGGTKLEIKRTVAAPSVFIFPPSDEQLKSGTASVVCLLNNFYPREAKVQWKVDNALQSGNSQESVTEQDSKDSTYSLSSTLTLSKADYEKHKVYACEVTHQGLSSPVTKSFNRGECSGGGSGGGSEGGGSEGGGSEGGGSEGGGSGGGSGEVQLVQSGAEVKKPGTSVKVSCKASGYSFTSYFIQWVRQAPGQGLEWIGWIFPGSGNTKYSQKFQGRVTITRDTSTSTAYMELSSLRSEDTAVYYCARSGGYQYYFDYWGQGTLVTVSSASTKGPSVFPLAPSSKSTSGGTAALGCLVKDYFPEPVTVSWNSGALTSGVHTFPAVLQSSGLYSLSSVVTVPSSSLGTQTYICNVNHKPSNTKVDKKVEPKSCDKTHTCPPCPAPEAAGGPSVFLFPPKPKDTLMISRTPEVTCVVVDVSHEDPEVKFNWYVDGVEVHNAKTKPREEQYNSTYRVVSVLTVLHQDWLNGKEYKCKVSNKALPAPIEKTISKAKGQPREPQVCTLPPSRDELTENQVSLTCLVKGFYPSDIAVEWESNGQPENNYKTTPPVLDSDGSFFLYSWLTVDKSRWQQGNVFSCSVMHEALHNHYTQKSLSLSPG
notes: Knob-into-hole heterodimer of two single chains, 2+1 IgG format

Legend:
[1] = target: T1, anti-EGFR/anti-MSLN/anti-CD3 trispecific antibody Cetuximab/HMI323-A15; test: BLI (Octet), antigen immobilised on APS sensor, antibody 6.25-100 nM
T1 construct: Trispecific antibody: knob-into-hole heterodimer of two single chains, 2+1 IgG format

recombinant human MSLN = target: T2, recombinant human MSLN (human, UniProt Q13421 296-580, limits assumed); test: as above
T2 construct: Immobilised on an APS sensor in the Octet assay; also called mesothelin

[2] = target: T3, MSLN on H226 and AsPC-1 cancer cell lines (UniProt Q13421 296-598); test: flow cytometry on AsPC-1 cells (overexpress MSLN and EGFR), PE anti-human IgG
T3 construct: whole, on cells; The same cells also overexpress EGFR; also called MSLN-expressing tumor cells; MSLN+ tumor cells
Experimental: (§1) Then, light was blocked for one and a half hours and incubation was performed at 4° C. Subsequently, 200 μl of FACS buffer was added thereto. Centrifugation was performed at 2,000 rpm for 3 minutes at 4° C., and then the supernatant was removed.
(§2) Then, light was blocked for 30 minutes and incubation was performed at 4° C. Subsequently, 200 μl of FACS buffer was added thereto, and centrifugation was performed at 2,000 rpm for 3 minutes at 4° C.; and then the supernatant was removed to obtain a sample.
(§3) 200 μl of BD CYTOFIX™ was added to the sample so that the cells were suspended, and analysis was performed by BD LSR FORTESSA™.

[3] = target: T3, MSLN on H226 and AsPC-1 cancer cell …; test: cell-based or functional assay
recombinant human CD3 = target: B1; test: BLI (Octet), antigen immobilised on APS sensor, antibody 6.25-100 nM
[4] = target: T3, MSLN on H226 and AsPC-1 cancer cell …; test: flow cytometry on H226 cells (overexpress MSLN and EGFR), PE anti-human IgG
Experimental: as §1, §2, §3

[5] = target: T4, CD3 on Jurkat E6-1 T cell line (UniProt P07766 23-207); test: flow cytometry on Jurkat E6-1 cells (express CD3), PE anti-human IgG
T4 construct: whole, on cells; On the cells CD3 is the whole complex
Experimental: as §1, §2, §3

T3 sequence (Q13421 other isoform, or with tags, fused parts or gaps limits assumed): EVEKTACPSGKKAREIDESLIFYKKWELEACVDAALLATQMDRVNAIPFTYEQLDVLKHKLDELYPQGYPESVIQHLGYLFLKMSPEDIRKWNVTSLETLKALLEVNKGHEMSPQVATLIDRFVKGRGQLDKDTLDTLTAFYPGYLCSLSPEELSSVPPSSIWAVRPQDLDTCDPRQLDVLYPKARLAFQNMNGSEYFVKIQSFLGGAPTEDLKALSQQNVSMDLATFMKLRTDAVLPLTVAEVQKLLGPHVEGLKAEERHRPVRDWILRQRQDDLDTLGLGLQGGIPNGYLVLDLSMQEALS
T2 sequence (Q13421 other isoform, or with tags, fused parts or gaps limits assumed): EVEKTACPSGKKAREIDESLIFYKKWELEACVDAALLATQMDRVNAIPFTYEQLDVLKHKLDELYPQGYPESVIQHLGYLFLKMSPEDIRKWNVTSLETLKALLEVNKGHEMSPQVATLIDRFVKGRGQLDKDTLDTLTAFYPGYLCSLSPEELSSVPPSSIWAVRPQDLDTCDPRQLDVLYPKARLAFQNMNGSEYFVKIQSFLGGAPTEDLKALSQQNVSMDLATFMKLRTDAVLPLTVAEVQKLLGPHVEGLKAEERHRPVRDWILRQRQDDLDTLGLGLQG

Binder	Kd [1] [nM]	koff [1] [s⁻¹]	kon [1] [M⁻¹ s⁻¹]	Kd (recombinant human MSLN) [nM]	koff (recombinant human MSLN) [s⁻¹]	kon (recombinant human MSLN) [M⁻¹ s⁻¹]	EC50 [2] [nM]	IC50 of PBMC-mediated cell killing; AsPC-1; PBMC:target cell 10:1; 24 hr [3] [nM]	IC50 of PBMC-mediated cell killing; AsPC-1; PBMC:target cell 10:1; 48 hr [3] [nM]	IC50 of PBMC-mediated cell killing; AsPC-1; PBMC:target cell 20:1; 48 hr [3] [nM]	IC50 of PBMC-mediated cell killing; H226; PBMC:target cell 10:1; 24 hr [3] [nM]	IC50 of PBMC-mediated cell killing; H226; PBMC:target cell 10:1; 48 hr [3] [nM]	IC50 of PBMC-mediated cell killing; H226; PBMC:target cell 20:1; 48 hr [3] [nM]	Kd (recombinant human CD3) [nM]	koff (recombinant human CD3) [s⁻¹]	kon (recombinant human CD3) [M⁻¹ s⁻¹]	EC50 [4] [nM]	EC50 [5] [nM]
B1	13.5	0.00625	463000	–	–	–	–	–	–	–	–	–	–	–	–	–	–	–
B2	–	–	–	7.79	0.000774	99400	4.7	0.406	0.144	0.0304	0.0844	0.0503	0.0153	52.6	0.0242	461000	6.2	58
